Assay results taken from patent publication US20090220527A1 (MEDLMMUNE, published 2009).
Substitutions are numbered along the chain they refer to.

Legend:
[1] = biological target: T1, human EphA2 (form used in the affinity measurements not stated) (human, UniProt P29317 24-534, limits assumed); assay: surface plasmon resonance (BIAcore 3000), purified scFv
T1 construct: The only EphA2 reagent it describes is human EphA2-Fc
Method: 2A4, 2E7 and 12E2 as well as parental EA2 scFv and humanized 4H5 scFv were induced for expression in E. coli in a 1 L culture volume. The supernatants containing soluble, secreted scFv fragments were spun to remove cellular debris then passed over an anti-FLAG column (Sigma) to purify and isolate the variant proteins. The purified affinity optimized variants were analyzed by surface plasmon resonance detection using a BIAcore 3000 instrument (Pharmacia Biosensor, Uppsala, Sweden). […] (see FIG. 5).

[2] = biological target: T1, human EphA2 (form used in the affinity …); assay: method not stated; humanized clone from framework shuffling, reference chimeric Fab EA2

T1 sequence (P29317 24-534 limits assumed): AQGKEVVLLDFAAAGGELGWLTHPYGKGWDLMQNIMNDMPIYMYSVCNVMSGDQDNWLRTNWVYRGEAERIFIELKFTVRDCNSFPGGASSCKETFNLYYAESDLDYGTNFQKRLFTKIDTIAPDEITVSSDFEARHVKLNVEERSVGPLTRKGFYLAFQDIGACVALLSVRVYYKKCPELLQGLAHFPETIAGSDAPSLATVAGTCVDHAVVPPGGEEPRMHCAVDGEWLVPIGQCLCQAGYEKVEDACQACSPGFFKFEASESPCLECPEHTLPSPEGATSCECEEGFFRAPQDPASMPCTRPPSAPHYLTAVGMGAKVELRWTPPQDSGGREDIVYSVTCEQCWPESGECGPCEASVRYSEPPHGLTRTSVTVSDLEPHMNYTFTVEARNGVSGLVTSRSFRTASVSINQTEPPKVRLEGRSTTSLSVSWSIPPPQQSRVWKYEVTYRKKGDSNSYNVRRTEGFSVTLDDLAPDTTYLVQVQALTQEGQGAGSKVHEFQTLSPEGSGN

B1: 2A4 scFv (affinity optimized combinatorial variant of humanized 4H5) (scFv)
scFv: QVQLLESGGGLVQPGGSLRLSCAASGFTFSSYTMSWVRQAPGQALEWMGTISSRGTYTYYPDSVKGRFTISRDNAKNSLYLQMNSLRAEDTAVYYCAREAIFTHWGRGTLVTVSSGGGGSGGGGSGGGGSDIQLTQSPSSLSASVGDRVTITCKASQDINNYHSWYQQKPGQAPRLLIYRANRLVDGVPDRFSGSGYGTDFTLTINNIESEDAAYYFCLKYNVFPYTFGQGTKVEIK
[1]
  Kd: 5.6 nM
  kon: 652000 M⁻¹ s⁻¹

B2: 2E7 scFv (affinity optimized combinatorial variant of humanized 4H5) (scFv)
scFv: B1 scFv with H163G, V223R
[1]
  kon: 563000 M⁻¹ s⁻¹

B3: 12E2 scFv (affinity optimized combinatorial variant of humanized 4H5) (scFv)
scFv: B1 scFv with H104Y, H163L, V185F, N222D, V223R
[1]
  kon: 518000 M⁻¹ s⁻¹

B4: humanized clone 4H5 (from framework shuffling of murine mAb EA2; format in this comparison not stated) (antibody, V domains shown)
VH: QVQLLESGGGLVQPGGSLRLSCAASGFTFSSYTMSWVRQAPGQALEWMGTISSGGTYTYYPDSVKGRFTISRDNAKNSLYLQMNSLRAEDTAVYYCAREAIFTYWGRGTLVTVSS
VL: DIQLTQSPSSLSASVGDRVTITCKASQDINNYLSWYQQKPGQAPRLLIYRANRLVDGVPDRFSGSGYGTDFTLTINNIESEDAAYYFCLKYDVFPYTFGQGTKVEIK
notes: Compared with chimeric Fab EA2; also called humanized Mab 4H5
[2]
  fold increase of affinity against chimeric Fab EA2: ~20 fold
